Assay results taken from PMC5910400.

Biological target: CXCL8 (human)

B1: P1156 (evasin from Ixodes ricinus), purified, C-terminal StrepII:His tag (natural protein)
chain: DGGADDDNELFTVQYCGMNCTKDEGGTWTGCTGKKEGCKCYHESGKNYGLCLSTEYTDFSQYGNPSDSEIEAAKPKRSDTLSH
B1 was tested, and the mean IC50 (three biological replicates) of inhibition of primary human granulocyte migration induced by the EC80 dose of CXCL8 was 1.8e-09 M.
